Results reported in a protein production outcome set (Wang et al. 2014).

Experiment: label from the status in PepcDB records

Sequence | protein production
MVLSVVVVGKPRCRSIAVAARERLHRYGEYPMSSNNASGKVVSVDEQAFENAGEQAADEDGFPVVDETPEFEAAVEQETQAKVDANHPDGIADTSEDRIHGVTLEQEERIRAREAELERISAQAELGTQDGREQRTRDIAAKRSAVRRAEFQTRAASVDPMADPERDDPRAELTQEQLAAVNKQSMRLAEKLDGWSRAAIGRRLGEAVVGGKDVTSAVVGVFEELQTAPGTVIPIGKLEDVNRKEVSIEGTVTRLWKPSSAAISQVGLIEDESGKTKFTSWVASEQPWIEEGEHVRIHGAAKNWYNGRVSVALTGWSTVHFPERGRWWEALEHHHHHH | failed
RNRFKWGPASQQILYQAYDRQKNPSKEEREALVEECNRAECLQRGVSPSKAHGLGSNLVTEVRVYNWFANRRKEEAFRQKLAMDAYSSN | not failed
MALLRRFIGQKVRTVIQVTGSEIGSVVGKSTDDLQIVVRGSSPPSPLTTYLEVIGIAESDNAIRAETWTNFGNTFDTQNYNELCKLAN | failed
MQNTKLYSLTLIALGAAIIAVLSPLSIPIGIVPVTLQTLAVGLVATVLKARETFFAILLYLLLGFIGIPVFTGGTSGIAVLFGPTGGFLIAFLIMGTLISFGLHQINYKTIPAFIINIVGHLLMLVIGTLWLKFFTNVDWSLALKLGFTPFVIVEIIKAVLVTIFGLALIRALSHTNKYFTN | failed
MSDAAISGRREQGWLAGLGNWIPARFRRDIPVVPVVRLSGTIGAVTPLRPGLTLAGVAKLLDRAFSTRNAKAVALAINSPGGSPVQSRLIYLRIRALAAEKKLPVYAFVEDVAASGGYMIACAADEIYCDPSSILGSIGVVGGGFGFQELIRKIGVERRLYTAGERKAQLDPFLPEDPQEVARLKVLQQEIHALFIALVKESRGTRLKGEESKLFTGEYWAGATSVSLGLADSIGDLRAVLRGKFGDKVRTPLISPPTGLLANLSRKSSGAGASLDGVAALPESMITALETRAIWAKYGF | failed
MIVVKVGGAEGINYEAVAKDAASLWKEGVKLLLVHGGSAETNKVAEALGHPPRFLTHPGGQVSRLTDRKTLEIFEMVYCGLVNKRLVELLQKEGANAIGLSGLDGRLFVGRRKTAVKYVENGKVKVHRGDYTGTVEEVNKALLDLLLQAGYLPVLTPPALSYENEAINTDGDQIAALLATLYGAEALVYLSNVPGLLARYPDEASLVREIPVERIEDPEYLALAQGRMKRKVMGAVEAVKGGVKRVVFADGRVENPIRRALSGEGTVVR | not failed
MPSFLEISPDKLNRLIGTPGAPRIIDVRTDEDFALDPRLVPGSIRRDHAEVASWADSIDADAVVVVCHRGAKLSHGVAAYLRHAGIEAESLAGGFEAWAAAGPAVPEAKLEHHHHHH | failed
MQRLKTVFILFIAFLFFSCSGKTNEQAFFKELSKIDLQIAEGYQAKALKSLKRLQKKAVNSTNYVSIVKRQLKLNSIPDALISLQTGIKKIPDSPELSALLTSILIDSGKPAEALPYCEKLKDTPYASLGAEASILSDIALNSFNSDFSLLKAAYDKTENQVFLKNAAIVLAAKGRLREASNLRYNIPNDVAPEHPFFWSCIVYDLGVFDSIFGDLYFSLVYADKDGGEGKTAENARLHLMLAADAAYGQGDTERARAFWQAAADRSPEASPIVFYDLALTAPDEKERVDLLIECIDLYPDFYPVIARYVREDIALRELNSQDELSAYLESKGFYSIKMEETYFTSPKMTYKPEDLLARAMKNPNFDQRFILEEFRYNQITDKTYASKARGKADMWKILEKYGKESIIREYAKWYFAQSGDFNACLSVSEIGKRYEDSFYAGINSALSGDFENAVSSFAASAQVSAYAYASTVNSAYMYYMSGKTSEAVDTYSLAASMTQDKKRQSMLHYEIASIFYERKAYDRAISVLGYALELNPKNYQAASLLKKLKEFN | failed
MQAGQVATNDLTISGIVNTVPASAVFAREANPVKVLNVKNTGDETLSNISIAVYASDVSSGTVPVDTTTIASLAGDATTTVTLIDPTIRDLEGGTVTYTAVVDPDNLIAETDETNNNKSSLEHHHHHH | failed
MRYRRAARPVATVLIHAMQTYPLVFHASPDQTIAWRDGAPVAVRTFLAEVAQLAAALPAGAHVFNACTDRYRFTVGLCATLVAGKISLLPASQTPETVRRLAAFAPDVFCLHDAPDCAIALPRFRFPEPLPPAGADAPVDVPQIDASRVMAYIFTSGSTGTPVPHRKTWGALVEGVRASAARLGLLDAHACTLVGTVPPQHMYGFESTVLLALVGGLAFSNRLPFYPADIRAALEAVPQPRVLVTSPIHLRALLSSERALPPAALVLSATAALPEPLASEAEARLAAPLIEIYGSTETGQIATRRTAQGATWHLQPGIRLEARAGTPDEDGPVTWASGAHLDAPVPMGDTLELIDDTHFLLHGRKADLINVAGKRTSLAYLNHQLNAIPGVEDGVFFMPSAADNGSEPPARLAALVVAPELAAADLLHALRERIDPAFLPRPLLLVEALPRDATGKLPRDALAALIAQHGHRGARAGAPAPITFTIPADHPALPGHFPGHPIVPGVVLLDQAIRRIGAALNRPFDACRLSSAKFLSPAAPGVPLALAFEATASGAIRFTVSAGEREVASGVLAQQEAARP | failed
MLLSIIMPAHNAAAYLERTLALLAQQIAGLEQVEVVAIDDASTDETAKILVEFARTHSWLKAISVDFANVGLARQAGIGLAGGQYVTFLDSDDAFLSGGLAWMVNVLRQRAPDLLMTPLQETGQPLDGTEVAGLFQDVVPLSTQQACDLFCEHQRLQGHFAGKCVTRQILLQHDLAAMECYEDMMTTPHWIVEAKSIVWGEVPVYAYYKRPGSLSDRGQTWRYGKEYIRALQSIEAAFAGRIAVWQTAHLWIGFAKDLLKTSTGRQFLDTQPAVAEKIQSISVWKYLVATQVSCKWKIRFLRVRLRLLEHHHHHH | not failed
SKYQLGMLHFSTQYDLLHNHLTVRVIEARDLPPPISHDGSRQDMAHSNPYVKICLLPDQKNSKQTGVKRKTQKPVFEERYTFEIPFLEAQRRTLLLTVVDFDKFSRHCVIGKVSVPLCEVDLVKGGHWWKALIP | not failed
MHEFSTVDGFAEINESLAEMIKYIANEPSVGLYYIQQHIRNAAPNVINLNNNVLEKSRETGLHTEDLEDSIAMVKSMKDCGSPIADEMIGDIKNSLAIMSSKQPRRGVILNSTSPWSRSSSITTRTRGSDNSQDNSESSNYFTSVFMTAKEKASNIKWPQLDFKEQKSEADPNVQSNELKEEEEEDSGKGEHIVETTKFEEFKAGKEASLKAWLGDMDGNVDVGGRVAERI | not failed
MTKVLILGANGRIARIVEQRLLAETDVQLTLVLRNAGRLLVTSPERETVIQGDVSDSQLLDTVMPNQDIVYANLAGNMALLAQTIITSMNRNHVPHLIWVTGSGLYHETPNPFGAWVEQVVGHAAKNDTRHAARIIESSDIPATIIRAAYMTDDTKIDYELTYKGERFKGTMISRASIADLIMKIIAEPTAYENTSLGIAQPGTDNMLPQVKLMAQHR | failed
MQFLPILFVLLASGSFLSYTLSSYAIGNGTANIYHYVLNATSTGTEYNVSVFLNWSYSNLYEYVNKYDYSTFHKNFQVPDLYYIFYHSNPSTLAYILLFNNVTLTTYNLGGNQIPAIKFYNGDNYLTVSAQYGVMLQGFAKNYAGPSAGTLNVSISLNSYKNLPSFVSNANMYTLNVSFMPNPSALSYTLYLVSPEAKISGSNMYVSKEISIAYLSILSKGFTTIIIPSAYSIVRPIGEVIINQTNYYYFYLNGTLTYYGTYFTPKYYNSTTPFTIDTIGKYIVIFFPTGGNITVFLNNGNNPLYGVKVTGETGNKNTPLSLYLIIIGVVIVLVVAIIVLRFRKVF | failed
QSAKEAIEAANADFVKAYNSKDAAGVASKYMDDAAAFPPDMARVDGRQNIQKLWQGAMDMGISELKLTTLDVQESGDFAFESGSFSLKAPGKDSKLVDAAGKYVVVWRKGQDGGWKLYRDIWNSDPAK | not failed
MNKHASQPRAIYYVVALQIWEYFSFYGMRALLILYLTNQLKYNDTHAYELFSAYCSLVYVTPILGGFLADKVLGNRMAVMLGALLMAIGHVVLGASEIHPSFLYLSLAIIVCGYGLFKSNVSCLLGELYEPTDPRRDGGFSLMYAAGNVGSIIAPIACGYAQEEYSWAMGFGLAAVGMIAGLVIFLCGNRHFTHTRGVNKKVLRATNFLLPNWGWLLVLLVATPALITILFWKEWSVYALIVATIIGLGVLAKIYRKAENQKQRKELGLIVTLTFFSMLFWAFAQQGGSSISLYIDRFVNRDMFGYTVPTAMFQSINAFAVMLCGVFLAWVVKESVAGNRTVRIWGKFALGLGLMSAGFCILTLSARWSAMYGHSSLPLMVLGLAVMGFAELFIDPVAMSQITRIEIPGVTGVLTGIYMLLSGAIANYLAGVIADQTSQASFDASGAINYSINAYIEVFDQITWGALACVGLVLMIWLYQALKFRNRALALES | failed
MLIRKADAQDLDAICRLAAQINRQHHQALPELFLAAADADADRAFWRARLEGEDSVLLVAEREGAVLAFLTAQLQSSPPLPFLQARRICRIGTIVVDEACQGQGIGSRLLAAAEDWGRRQDADELRLEVMQFNQGALAFYARHGLAAQSQIMSKSLAGAAR | failed
MPKIPITLITGFLGSGKTSFLSEYLNQTDHQGVALIINEIGQAALDQRILSVQYCGEKMLYLNAGCVCCNKRLDLVESLKATLNNYEWHGEILRRIIIETTGLANPAPILWTILSDTFLGVHFEIQSVVACVDALNAREHLTNNEAKEQIVFADSVLLTKTDLQNDSAALTKLKERIQALNPSAEIFDKRAIDYESLFSRKNRARNFMPRMPKDSHSQGFETLSINFEGTMEWSAFGIWLSLLLHQYGTQILRIKGIIDIGSGFLVSINGVMHVIYPPKHILKDQNGSNLVFIMRHLEREKILNSLKGFKDFLGIKGFETQLEHHHHHH | not failed
FFTPPHIVQLCVRLVDDFADGMTFHDPTVGSGGMLTEAAKYYREAQGGDPSKLTFTGQEINPDIAAIARMNLSLHTLNGEIERGDSLASPGFTDGDDLERFDRVLANFPFSADWAKDDLQDDQYGRFDWHTKLPRADRGDYAFIMHIAEQLKEPDCGDESGGKAAIVIPHGVLFRKHEQRYRQPMLENDLVEAIVGLPENLFQNNSIPSAILVLNTDKPADREGEVQFIHAADEAFYEELSNQNELTDDGLDHIVENFDDWTTE | failed
MGHHHHHHSHMALRDLCVVLLNGQHLEVKCDVESTVGAVFNAVTSFANLEELTYFGLAYMKSKEFFFLDSETR | failed
ELGLRSKTNVVSLDKIIIDKKSSLITGFPEFRMVWKVVRQRVVDDLVSVLDTDYLDMELIPNLTRQIAEQSIYSYIENGLKLLIDYAQKEITIDHSSDRDKILMDIGKDPYVVSIKSKVYLQDGRQFQFTESRHKLEKFRFVDFAKRKK | not failed
MSLRSKRVLVVEDNPDDIALIRRVLDRKDIHCQLEFVDNGAKALYQVQQAKYDLIILDIGLPIANGFEVMSAVRKPGANQHTPIVILTDNVSDDRAKQCMAAGASSVVDKSSNNVTDFYGRIYAIFSYWLTVNHCQEGHHHHHH | not failed
MSLETFHYIANQLSGIFNFNGEPLATALIILGLAILSIMILAGLIYGAIKVVKAVPNMPFKQFIIVMLMIAVFLVIVGVLIP | failed
MMMLPEACIANILAFTSPADAFSSSEVSSVFRLAGDSDFVWEKFLPSDYKSLISQSTDHHWNISSKKEIYRCLCDSLLIDNARKLFKINKFSGKISYVLSARDISITHSDHASYWSWSNVSDSRFSESAELIITDRLEIEGKIQTRVLSANTRYGAYLIVKVTKGAYGLDLVPAETSIKSKNGQISKSATYLCCLDEKKQQMKRLFYGNREERMAMTVEAVGGDGKRREPKCRDDGWMEIELGEFETREGEDDEVNMTLTEVKGYQLKGGILIDGIEVRPKT | failed
MITIDPEYFEILKEFGAERVVRCYQCGTCTGICPVSTTDASFPRKPVLLSRFGVGEVIENFEEAWLCLSCNLCTEFCPRDVKPSETMLAIKRVLVENGKTPPYIRDFFQLEHHHHHH | failed
MRETFEIGEIVTGIYKTGKYIGEVTNSRPGSYVVKVLAVLKHPVQGDLHNVKQANVPFFHERRALAFREQTNIPEQMVKKYEGEIPDYTESLKLALETQMNSFSEDDSPFAERSLETLQQLKKDYKL | not failed
